US20260242735A1 (UNIVERSIT T BASEL, published 2026)

Columns and labels:
Assay in all cases: alanine scan, flow cytometry, HEK293-T;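 further: antibody binding to each alanine-substituted CD33 mutant expressed transiently in HEK293-T, read as fluorescence minus background, mean of duplicates, relative to wild-type CD33 set as 100%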
[1] = target: human CD33 G88A (human, UniProt P20138 18-364)
Experimental: (§1) An alanine scan on human CD33 was performed to the determine the residues on CD33 that are involved in binding to the antibodies investigated. […] Briefly, a mutation library of CD33 was created by high-throughput, site-directed mutagenesis. Each residue was individually mutated to alanine, with alanine codons mutated to serine. The mutant library was arrayed in 384-well microplates and transiently transfected into HEK293-T. Following transfection, cells were incubated with the indicated antibodies (IgG or Fab) at concentrations pre-determined using an independent immunofluorescence titration curve on wild type CD33. […] Binding of each antibody to each mutant clone was determined in duplicates. For each point, background fluorescence was subtracted from the raw data, which were then normalized to antibody reactivity with wild type CD33.
(§2) Critical residues for antibody binding (outlined in dark grey) were residues whose mutations led to a binding of the test Abs of less than 20%. Additional secondary residues (outlined in light grey) were identified that led to a binding of the test Abs of between 20 and 40% as compared to the wild type CD33.

[2] = target: human CD33 L93A (human, UniProt P20138 18-364)
Experimental: as §1, §2

[3] = target: human CD33 P96A (human, UniProt P20138 18-364)
Experimental: as §1, §2

[4] = target: human CD33 Q87A (human, UniProt P20138 18-364)
Experimental: as §1, §2

[5] = target: human CD33 D95A (human, UniProt P20138 18-364)
Experimental: as §1, §2

[6] = target: human CD33 C101A (human, UniProt P20138 18-364)
Experimental: as §1, §2

[7] = target: human CD33 D70A (human, UniProt P20138 18-364)
Experimental: as §1, §2

[8] = target: human CD33 S54A (human, UniProt P20138 18-364)
Experimental: as §1, §2

[9] = target: human CD33 R98A (human, UniProt P20138 18-364)
Experimental: as §1, §2

[10] = target: human CD33 R62A (human, UniProt P20138 18-364)
Experimental: as §1, §2

[11] = target: human CD33 R111A (human, UniProt P20138 18-364)
Experimental: as §1, §2

[12] = target: human CD33 M120A (human, UniProt P20138 18-364)
Experimental: as §1, §2

[13] = target: human CD33 R119A (human, UniProt P20138 18-364)
Experimental: as §1, §2

[14] = target: human CD33 P55A (human, UniProt P20138 18-364)
Experimental: as §1, §2

[15] = target: human CD33 P48A (human, UniProt P20138 18-364)
Experimental: as §1, §2

[16] = target: human CD33 I67A (human, UniProt P20138 18-364)
Experimental: as §1, §2

[17] = target: human CD33 F117A (human, UniProt P20138 18-364)
Experimental: as §1, §2

[18] = target: human CD33 K77A (human, UniProt P20138 18-364)
Experimental: as §1, §2

[19] = target: human CD33 N99A (human, UniProt P20138 18-364)
Experimental: as §1, §2

[20] = target: human CD33 K52A (human, UniProt P20138 18-364)
Experimental: as §1, §2

[21] = target: T1, human CD33 S128A (human, UniProt P20138 18-364)
T1 construct: alanine scan clone, transfected HEK293-T
Experimental: as §1, §2

[22] = target: T2, human CD33 P155A (human, UniProt P20138 18-364)
T2 construct: alanine scan clone, transfected HEK293-T
Experimental: as §1, §2

[23] = target: T3, human CD33 T162A (human, UniProt P20138 18-364)
T3 construct: alanine scan clone, transfected HEK293-T
Experimental: as §1, §2

[24] = target: T4, human CD33 H193A (human, UniProt P20138 18-364)
T4 construct: alanine scan clone, transfected HEK293-T
Experimental: as §1, §2

[25] = target: T5, human CD33 K159A (human, UniProt P20138 18-364)
T5 construct: alanine scan clone, transfected HEK293-T
Experimental: as §1, §2

[26] = target: T6, human CD33 Q133A (human, UniProt P20138 18-364)
T6 construct: alanine scan clone, transfected HEK293-T
Experimental: as §1, §2

[27] = target: T7, human CD33 S186A (human, UniProt P20138 18-364)
T7 construct: alanine scan clone, transfected HEK293-T
Experimental: as §1, §2

[28] = target: T8, human CD33 P174A (human, UniProt P20138 18-364)
T8 construct: alanine scan clone, transfected HEK293-T
Experimental: as §1, §2

[29] = target: T9, human CD33 W167A (human, UniProt P20138 18-364)
T9 construct: alanine scan clone, transfected HEK293-T
Experimental: as §1, §2

[30] = target: T10, human CD33 L148A (human, UniProt P20138 18-364)
T10 construct: alanine scan clone, transfected HEK293-T
Experimental: as §1, §2

[31] = target: T11, human CD33 A168S (human, UniProt P20138 18-364)
T11 construct: alanine scan clone, transfected HEK293-T
Experimental: as §1, §2

[32] = target: T12, human CD33 T139A (human, UniProt P20138 18-364)
T12 construct: alanine scan clone, transfected HEK293-T
Experimental: as §1, §2

[33] = target: T13, human CD33 T192A (human, UniProt P20138 18-364)
T13 construct: alanine scan clone, transfected HEK293-T
Experimental: as §1, §2

[34] = target: T14, human CD33 C169A (human, UniProt P20138 18-364)
T14 construct: alanine scan clone, transfected HEK293-T
Experimental: as §1, §2

[35] = target: T15, human CD33 S158A (human, UniProt P20138 18-364)
T15 construct: alanine scan clone, transfected HEK293-T
Experimental: as §1, §2

[36] = target: T16, human CD33 I147A (human, UniProt P20138 18-364)
T16 construct: alanine scan clone, transfected HEK293-T
T16 sequence (P20138 18-364 I147A limits assumed): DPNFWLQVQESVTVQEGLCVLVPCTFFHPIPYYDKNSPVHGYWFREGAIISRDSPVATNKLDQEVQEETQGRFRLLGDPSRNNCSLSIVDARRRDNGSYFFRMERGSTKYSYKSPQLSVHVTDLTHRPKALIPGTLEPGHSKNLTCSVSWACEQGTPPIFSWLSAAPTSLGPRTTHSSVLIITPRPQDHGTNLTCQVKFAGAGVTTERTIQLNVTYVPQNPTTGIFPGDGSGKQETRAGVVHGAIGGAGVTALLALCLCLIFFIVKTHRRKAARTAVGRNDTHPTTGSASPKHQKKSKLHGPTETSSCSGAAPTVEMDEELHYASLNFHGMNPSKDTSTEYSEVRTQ
Experimental: as §1, §2

T6 sequence (P20138 18-364 Q133A limits assumed): as the sequence (P20138 18-364 I147A limits assumed) above, with Q116A, A130I counted along it
human CD33 M120A, sequence (P20138 18-364 M120A limits assumed): as the sequence (P20138 18-364 I147A limits assumed) above, with M103A, A130I counted along it
T8 sequence (P20138 18-364 P174A limits assumed): as the sequence (P20138 18-364 I147A limits assumed) above, with A130I, P157A counted along it
T13 sequence (P20138 18-364 T192A limits assumed): as the sequence (P20138 18-364 I147A limits assumed) above, with A130I, T175A counted along it
human CD33 N99A, sequence (P20138 18-364 N99A limits assumed): as the sequence (P20138 18-364 I147A limits assumed) above, with N82A, A130I counted along it
T4 sequence (P20138 18-364 H193A limits assumed): as the sequence (P20138 18-364 I147A limits assumed) above, with A130I, H176A counted along it
T7 sequence (P20138 18-364 S186A limits assumed): as the sequence (P20138 18-364 I147A limits assumed) above, with A130I, S169A counted along it
T11 sequence (P20138 18-364 A168S limits assumed): as the sequence (P20138 18-364 I147A limits assumed) above, with A130I, A151S counted along it
human CD33 R62A, sequence (P20138 18-364 R62A limits assumed): as the sequence (P20138 18-364 I147A limits assumed) above, with R45A, A130I counted along it
human CD33 G88A, sequence (P20138 18-364 G88A limits assumed): as the sequence (P20138 18-364 I147A limits assumed) above, with G71A, A130I counted along it
human CD33 I67A, sequence (P20138 18-364 I67A limits assumed): as the sequence (P20138 18-364 I147A limits assumed) above, with I50A, A130I counted along it
human CD33 R111A, sequence (P20138 18-364 R111A limits assumed): as the sequence (P20138 18-364 I147A limits assumed) above, with R94A, A130I counted along it
human CD33 R98A, sequence (P20138 18-364 R98A limits assumed): as the sequence (P20138 18-364 I147A limits assumed) above, with R81A, A130I counted along it
human CD33 K77A, sequence (P20138 18-364 K77A limits assumed): as the sequence (P20138 18-364 I147A limits assumed) above, with K60A, A130I counted along it
human CD33 Q87A, sequence (P20138 18-364 Q87A limits assumed): as the sequence (P20138 18-364 I147A limits assumed) above, with Q70A, A130I counted along it
human CD33 D95A, sequence (P20138 18-364 D95A limits assumed): as the sequence (P20138 18-364 I147A limits assumed) above, with D78A, A130I counted along it
human CD33 P48A, sequence (P20138 18-364 P48A limits assumed): as the sequence (P20138 18-364 I147A limits assumed) above, with P31A, A130I counted along it
T2 sequence (P20138 18-364 P155A limits assumed): as the sequence (P20138 18-364 I147A limits assumed) above, with A130I, P138A counted along it
human CD33 D70A, sequence (P20138 18-364 D70A limits assumed): as the sequence (P20138 18-364 I147A limits assumed) above, with D53A, A130I counted along it
human CD33 P55A, sequence (P20138 18-364 P55A limits assumed): as the sequence (P20138 18-364 I147A limits assumed) above, with P38A, A130I counted along it
human CD33 R119A, sequence (P20138 18-364 R119A limits assumed): as the sequence (P20138 18-364 I147A limits assumed) above, with R102A, A130I counted along it
T10 sequence (P20138 18-364 L148A limits assumed): as the sequence (P20138 18-364 I147A limits assumed) above, with A130I, L131A counted along it
T9 sequence (P20138 18-364 W167A limits assumed): as the sequence (P20138 18-364 I147A limits assumed) above, with A130I, W150A counted along it
human CD33 F117A, sequence (P20138 18-364 F117A limits assumed): as the sequence (P20138 18-364 I147A limits assumed) above, with F100A, A130I counted along it
human CD33 P96A, sequence (P20138 18-364 P96A limits assumed): as the sequence (P20138 18-364 I147A limits assumed) above, with P79A, A130I counted along it
human CD33 K52A, sequence (P20138 18-364 K52A limits assumed): as the sequence (P20138 18-364 I147A limits assumed) above, with K35A, A130I counted along it
T14 sequence (P20138 18-364 C169A limits assumed): as the sequence (P20138 18-364 I147A limits assumed) above, with A130I, C152A counted along it
T1 sequence (P20138 18-364 S128A limits assumed): as the sequence (P20138 18-364 I147A limits assumed) above, with S111A, A130I counted along it
human CD33 C101A, sequence (P20138 18-364 C101A limits assumed): as the sequence (P20138 18-364 I147A limits assumed) above, with C84A, A130I counted along it
human CD33 S54A, sequence (P20138 18-364 S54A limits assumed): as the sequence (P20138 18-364 I147A limits assumed) above, with S37A, A130I counted along it
T3 sequence (P20138 18-364 T162A limits assumed): as the sequence (P20138 18-364 I147A limits assumed) above, with A130I, T145A counted along it
T5 sequence (P20138 18-364 K159A limits assumed): as the sequence (P20138 18-364 I147A limits assumed) above, with A130I, K142A counted along it
human CD33 L93A, sequence (P20138 18-364 L93A limits assumed): as the sequence (P20138 18-364 I147A limits assumed) above, with L76A, A130I counted along it
T12 sequence (P20138 18-364 T139A limits assumed): as the sequence (P20138 18-364 I147A limits assumed) above, with T122A, A130I counted along it
T15 sequence (P20138 18-364 S158A limits assumed): as the sequence (P20138 18-364 I147A limits assumed) above, with A130I, S141A counted along it

B1: Refmab #5 (antibody, V domains shown)
VH: QVQLVQSGAEVKKPGASVKVSCKASGYTFTNYDINWVRQAPGQGLEWIGWIYPGDGSTKYNEKFKAKATLTADTSTSTAYMELRSLRSDDTAVYYCASGYEDAMDYWGQGTTVTVSS
VL: DIQMTQSPSSLSASVGDRVTINCKASQDINSYLSWFQQKPGKAPKTLIYRANRLVDGVPSRFSGSGSGQDYTLTISSLQPEDFATYYCLQYDEFPLTFGGGTKVEIK
notes: Full-length format is human IgG1 Fc silent (PG-LALA); also made as Fab; The alanine scan used IgG or Fab
- Mean % WT Binding [1]: 118 % WT binding
- Mean % WT Binding [2]: 134 % WT binding
- Mean % WT Binding [3]: 114 % WT binding
- Mean % WT Binding [4]: 137 % WT binding
- Mean % WT Binding [5]: 122 % WT binding
- Mean % WT Binding [6]: 23 % WT binding
- Mean % WT Binding [7]: 112 % WT binding
- Mean % WT Binding [8]: 146 % WT binding
- Mean % WT Binding [9]: 134 % WT binding
- Mean % WT Binding [10]: 123 % WT binding
- Mean % WT Binding [11]: 118 % WT binding
- Mean % WT Binding [12]: 73.2 % WT binding
- Mean % WT Binding [13]: 167 % WT binding
- Mean % WT Binding [14]: 118 % WT binding
- Mean % WT Binding [15]: 92.8 % WT binding
- Mean % WT Binding [16]: 157 % WT binding
- Mean % WT Binding [17]: 113 % WT binding
- Mean % WT Binding [18]: 124 % WT binding
- Mean % WT Binding [19]: 88.4 % WT binding
- Mean % WT Binding [20]: 11.9 % WT binding

B2: Refmab #5 (antibody, V domains shown)
VH: B1 VH
VL: B1 VL
notes: The alanine scan used IgG or Fab
- Mean % WT Binding [21]: 283 % WT binding
- Mean % WT Binding [22]: 140 % WT binding
- Mean % WT Binding [23]: 92.4 % WT binding
- Mean % WT Binding [24]: 119 % WT binding
- Mean % WT Binding [25]: 148 % WT binding
- Mean % WT Binding [26]: 112 % WT binding
- Mean % WT Binding [27]: 112 % WT binding
- Mean % WT Binding [28]: 118 % WT binding
- Mean % WT Binding [29]: 95.5 % WT binding
- Mean % WT Binding [30]: 113 % WT binding
- Mean % WT Binding [31]: 103 % WT binding
- Mean % WT Binding [32]: 104 % WT binding
- Mean % WT Binding [33]: 109 % WT binding
- Mean % WT Binding [34]: 101 % WT binding
- Mean % WT Binding [35]: 99.2 % WT binding
- Mean % WT Binding [36]: 77.2 % WT binding

B3: Refmab #6 (antibody, V domains shown)
VH: QVQLQQPGAEVVKPGASVKMSCKASGYTFTSYYIHWIKQTPGQGLEWVGVIYPGNDDISYNQKFQGKATLTADKSSTTAYMQLSSLTSEDSAVYYCAREVRLRYFDVWGQGTTVTVSS
VL: EIVLTQSPGSLAVSPGERVTMSCKSSQSVFFSSSQKNYLAWYQQIPGQSPRLLIYWASTRESGVPDRFTGSGSGTDFTLTISSVQPEDLAIYYCHQYLSSRTFGQGTKLEIK
notes: as for B1
- Mean % WT Binding [1]: 105 % WT binding
- Mean % WT Binding [2]: 94.2 % WT binding
- Mean % WT Binding [3]: 92.3 % WT binding
- Mean % WT Binding [4]: 96.9 % WT binding
- Mean % WT Binding [5]: 86.3 % WT binding
- Mean % WT Binding [6]: 6.2 % WT binding
- Mean % WT Binding [7]: 80.3 % WT binding
- Mean % WT Binding [8]: 83.6 % WT binding
- Mean % WT Binding [9]: 94.2 % WT binding
- Mean % WT Binding [10]: 106 % WT binding
- Mean % WT Binding [11]: 102 % WT binding
- Mean % WT Binding [12]: 76.3 % WT binding
- Mean % WT Binding [13]: 123 % WT binding
- Mean % WT Binding [14]: 101 % WT binding
- Mean % WT Binding [15]: 104 % WT binding
- Mean % WT Binding [16]: 108 % WT binding
- Mean % WT Binding [17]: 90.3 % WT binding
- Mean % WT Binding [18]: 79.9 % WT binding
- Mean % WT Binding [19]: 92 % WT binding
- Mean % WT Binding [20]: 77 % WT binding

B4: Refmab #6 (antibody, V domains shown)
VH: B3 VH
VL: B3 VL
notes: as for B2
- Mean % WT Binding [21]: 127 % WT binding
- Mean % WT Binding [22]: 104 % WT binding
- Mean % WT Binding [23]: 87.2 % WT binding
- Mean % WT Binding [24]: 100 % WT binding
- Mean % WT Binding [25]: 123 % WT binding
- Mean % WT Binding [26]: 88.3 % WT binding
- Mean % WT Binding [27]: 110 % WT binding
- Mean % WT Binding [28]: 103 % WT binding
- Mean % WT Binding [29]: 90.5 % WT binding
- Mean % WT Binding [30]: 93.3 % WT binding
- Mean % WT Binding [31]: 100 % WT binding
- Mean % WT Binding [32]: 97.7 % WT binding
- Mean % WT Binding [33]: 99 % WT binding
- Mean % WT Binding [34]: 76.2 % WT binding
- Mean % WT Binding [35]: 95.2 % WT binding
- Mean % WT Binding [36]: 65.4 % WT binding
